Substitutions are numbered along the chain they refer to.
T1: human TREM2 expressed on cells (human, UniProt Q9NZC2 19-230)
T1 construct: BW5147.G.1.4 cells stably expressing human TREM2 together with Dap12, or endogenous TREM2 of primary human myeloid cells; also called huT2 BW; hTREM2 expressing cell line
T1 sequence: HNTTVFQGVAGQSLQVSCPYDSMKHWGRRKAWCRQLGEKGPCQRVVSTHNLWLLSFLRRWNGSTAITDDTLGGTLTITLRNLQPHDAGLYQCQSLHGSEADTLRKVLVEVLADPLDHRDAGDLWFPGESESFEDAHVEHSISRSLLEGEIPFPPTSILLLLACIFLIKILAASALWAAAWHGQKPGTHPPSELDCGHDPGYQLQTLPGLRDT

T2: human TREM2 Fc fusion (entire TREM2 ECD; only one Fc arm fused to TREM2) (human, UniProt Q9NZC2 19-174)
T2 construct: also called huTREM2-Fc; recombinant hTREM2
T2 sequence: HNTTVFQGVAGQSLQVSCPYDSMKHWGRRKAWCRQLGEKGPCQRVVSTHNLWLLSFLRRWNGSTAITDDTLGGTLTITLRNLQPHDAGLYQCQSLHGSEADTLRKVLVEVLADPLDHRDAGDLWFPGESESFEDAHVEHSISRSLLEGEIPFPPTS

T3: cynomolgus monkey TREM2 Fc fusion (entire TREM2 ECD; only one Fc arm fused to TREM2) (cynomolgus monkey, UniProt Q9NZC2 19-174 (human entry))
T3 construct: also called cyno TREM2-Fc
T3 chain: T2 sequence with A10E, W60R, L89F, F125V

B1: AL2p huIgG1 (human mouse chimeric parental antibody) (antibody, V domains shown)
VH: QVQLQQSGPELVKPGASLKISCKASGYAFSSSWMNWVKQRPGKGLEWIGRIYPGDGDTNYNGEFRVRATLTADTSSTTAYMQLSSLTSEDSAVYFCARLLRNQPGESYAMDYWGQGASVTVSS
VL: DVVMTQTPLSLPVSLGDQASISCRSSQSLVHSNGYTYLHWYLQKPGQSPKLLIYKVSNRFSGVPDRFSGSGSGTDFTLKISRVEADDLGVYFCSQSTRVPYTFGGGTKLEIK
notes: Mouse variable region with human IgG1 Fc region; Fab and IgG formats under one id; also called chimeric parental AL2p antibody as huIgG1
B2: AL2p-47 huIgG1 (antibody, V domains shown)
VH: QVQLVQSGAEVKKPGSSVKVSCKASGYAFSSDWMNWVRQAPGQGLEWMGRIYPGEGDTNYARKFHGRVTITADESTSTAYMELSSLRSEDTAVYYCARLLRNKPGESYAMDYWGQGTLVTVSS
VL: DVVMTQTPLSLSVTPGQPASISCRTSQSLVHSNAYTYLHWYLQKPGQSPQLLIYKVSNRVSGVPDRFSGSGSGTDFTLKISRVEAEDVGVYYCSQSTRVPYTFGQGTKLEIKR
B3: AL2p-61 huIgG1 (antibody, V domains shown)
VH: B2 VH with D32Q, H65Q, K103Q
VL: B2 VL with D1G, T25S, A34Q, V60R
B4: AL2p-8 (antibody, V domains shown)
VH: B2 VH with S31L, D32S, E55D, H65Q, K103Q, E106S
VL: GVVMTQTPLSLSVTPGQPASISCRSSQSLIHSNGYTYLHWYLQKPGQSPQLLIYKVSNRRSGVPDRFSGSGSGTDFTLKISRVEAEDVGVYYCSQSTRVPYTFGQGTKLEIK
notes: Fab and IgG formats under one id
B5: AL2p-29 (antibody, V domains shown)
VH: B2 VH with D32Q, E55D, R62Q, H65Q, K103Q
VL: B4 VL with Q27R, I30V, R60F
notes: as for B4
B6: AL2p-9 (antibody, V domains shown)
VH: B2 VH with S31R, D32S, E55D, R62Q, H65Q, K103Q, E106A
VL: B4 VL with S25T, I30V, R60V
notes: as for B4
B7: AL2p-36 (antibody, V domains shown)
VH: B2 VH with S16A, D32S, G44R, M48I, E55D, H65Q, E74T, T76A, K103Q, E106A
VL: DVVMTQSPDSLAVSLGERATINCRSSQSLVHSNGYTYLHWYQQKPGQSPKLLIYKVSNRFSGVPDRFSGSGSGTDFTLTISSLQAEDVAVYYCSQSTRVPYTFGGGTKVEIK
notes: as for B4
B8: AL2p-15 (antibody, V domains shown)
VH: B2 VH with D32H, E55D, R62Q, H65Q, K103Q
VL: B4 VL with Q27S, I30V, R60K
notes: as for B4
B9: AL2p-26 (antibody, V domains shown)
VH: B2 VH with D32H, E55G, R62Q, F64R, H65Q, K103Q
VL: B4 VL
notes: as for B4
B10: AL2p-35 (antibody, V domains shown)
VH: QVQLVQSGAEVKKPGASVKVSCKASGYAFWSSWMNWVRQAPGQRLEWIGRIYPGDGDTNYAQKFQGRVTITADTSASTAYMELSSLRSEDTAVYYCARLLRNQPGESYAHDYWGQGTLVTVSS
VL: B7 VL
notes: as for B4
B11: AL2p-16 (antibody, V domains shown)
VH: B2 VH with D32H, E55D, R62Q, H65R, K103Q, E106A
VL: B4 VL with S25T, I30V, R60V
notes: as for B4

target: T1, human TREM2 expressed on cells; test: FACS, hTREM2 BW cells

Bmax (MFI) | Kd [nM] | Binder
199000 | 1.32 | B1
226000 | 1.2 | B2
211000 | 0.42 | B3

target: T2, human TREM2 Fc fusion (entire TREM2 …); test: BLI, IgG, avid
Method in brief: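 Avid format: AHQ-loaded IgGs exposed to 100 nM human or cyno TREM2-Fc antigen, 3 min association, 3 min dissociation in buffer. Monovalent format: human TREM2-Fc loaded on AHQ sensors, exposed to 100 nM Fab. Kinetics fit to 1:1 model, run at 25° C.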

Kd [nM] | Binder
0.3 | B4
0.403 | B5
0.349 | B6
0.495 | B7
0.538 | B8
0.201 | B9
1.85 | B10
0.222 | B11

target: T1, human TREM2 expressed on cells; test: FACS, hTREM2 BW cells; remark: another data set of the same source
Method in brief: (§1)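 Cells were BW5147.G.1.4 stably expressing human TREM2 with Dap12, or human monocyte-derived dendritic cells differentiated 6 days with GM-CSF and IL-4. Antibodies bound 1 h on ice in PBS+2% FBS, then PE anti-human secondary 30 min on ice; flow cytometry read-out as mean fluorescence intensity.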

Kd [nM] | Binder
1.2 | B4
1.3 | B5
1.1 | B6
1.7 | B7
2.2 | B8
1.1 | B9
3.6 | B10
1.2 | B11

target: T2, human TREM2 Fc fusion (entire TREM2 …); test: BLI, Fab, monovalent
Description: Briefly, IgG's were loaded on-line onto AHQ sensors. Sensors were equilibrated off-line in assay buffer for 30 minutes and then monitored on-line for 60 seconds for baseline establishment. For avid binding measurement, sensors with loaded IgGs were exposed to 100 nM antigen (human TREM2 Fc fusion using the entire TREM2 ECD; only one Fc arm was fused to TREM2) for 3 minutes, afterwards they were transferred to assay buffer for 3 minutes for off-rate measurement. Monovalent binding measurements were obtained by loading human TREM2 Fe fusion antigens to AHQ sensor and followed by exposure to 100 nM TREM2 antibody Fab. Kinetics data were fit using a 1:1 binding model in the data analysis software provided by ForteBio. Assay was run at room temperature (25° C.).

Kd [nM] | Binder
102 | B1

target: T1, human TREM2 expressed on cells; test: FACS, human DCs
Method in brief: as §1

MFI [MFI] | Binder
310 | B4
322 | B6
240 | B7
262 | B8
296 | B9
130 | B10
327 | B11

target: T2, human TREM2 Fc fusion (entire TREM2 …); test: BLI, Fab, monovalent; remark: another data set of the same source

Kd [nM] | Binder
4.01 | B4
6.38 | B5
6.44 | B6
12.1 | B7
8.85 | B8
3.15 | B9
28.4 | B10
1.83 | B11

Target: T3, cynomolgus monkey TREM2 Fc fusion …
Test: BLI, Fab, monovalent

Kd [nM] | Binder
3.1 | B4
6.47 | B5
5.63 | B6
7.38 | B7
8.76 | B8
2.69 | B9
24.6 | B10
1.36 | B11

target: T4, human TREM2/DAP12 fusion protein (human, UniProt O43914 41-113, limits assumed); test: cell-based or functional assay
T4 sequence (O43914 other isoform, or with tags, fused parts or gaps limits assumed): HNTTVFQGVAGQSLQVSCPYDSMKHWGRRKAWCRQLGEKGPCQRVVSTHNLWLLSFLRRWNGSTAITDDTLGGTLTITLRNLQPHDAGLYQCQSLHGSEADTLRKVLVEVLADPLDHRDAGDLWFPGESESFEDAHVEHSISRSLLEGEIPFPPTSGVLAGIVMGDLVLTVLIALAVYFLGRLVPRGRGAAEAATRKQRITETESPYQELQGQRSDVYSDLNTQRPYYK

Soluble luciferase activation at 10 µg/ml Fold over control [fold over control] | Binder
3.55 | B1

target: T4, human TREM2/DAP12 fusion protein; test: cell-based or functional assay; remark: another data set of the same source

Plate bound IgG, fold over unstimulated control (25 nM IgG) [fold] | Soluble IgG, EC50 [nM] | Soluble IgG, fold over control IgG (17 nM IgG) [fold] | Binder
1.29 | 14.6 | 4.51 | B1
3.94 | 6.5 | 8.77 | B2
8.97 | 5.24 | 10.8 | B3

target: T1, human TREM2 expressed on cells; test: cell-based or functional assay

Binder | EC50 viability, dendritic cells D558 [nM] | EC50 viability, dendritic cells D559 [nM] | EC50 viability, dendritic cells D560 [nM] | EC50 viability, macrophages D558 [nM] | EC50 viability, macrophages D559 [nM] | EC50 viability, macrophages D560 [nM]
B1 | 95.7 | 41.2 | 55.1 | 12.3 | 146 | 129
B2 | 1.02 | 1.13 | 0.672 | 0.013 | 1.56 | 1.25

target: T1, human TREM2 expressed on cells; test: cell-based or functional assay; remark: another data set of the same source

Binder | Survival huDCs plate bound IgG, AUC [AUC]
B4 | 1.09e+06
B5 | 1.11e+06
B6 | 976000
B7 | 1.14e+06
B8 | 488000
B9 | 1.11e+06
B10 | 453000
B11 | 880000

target: T4, human TREM2/DAP12 fusion protein; test: cell-based or functional assay; remark: another data set of the same source

Luciferase activation soluble 10 nM IgG, FOC [FOC] | Luciferase activation plate bound 33 nM IgG, FOC [FOC] | Binder
2.78 | – | B4
2.17 | 26.6 | B5
2.62 | 15.2 | B6
2.64 | 22.7 | B7
1.8 | 7.54 | B8
2.59 | 25.9 | B9
2.05 | 5.15 | B10
2.6 | 16.9 | B11

target: T1, human TREM2 expressed on cells; test: FACS, hTREM2 BW cells; remark: another data set of the same source
Description: To examine cell binding of anti-TREM2 antibodies, recombinant, human TREM2-expressing BW5147.G.1.4 cells (ATCC® TIB48™) were established by stably expressing either mouse TREM2 or human TREM2 together with Dap12 using viral infection. Cells were harvested by scraping, washed in PBS, counted and plated on 96-well U bottom plates at 1)(10⁵ cells/well. The plates were spun at 1,400 rpm for 3 minutes and primary anti-TREM2 or control antibodies were added in FACS buffer (PBS H2% FBS) and incubated on ice for one hour. Cells were subsequently centrifuged as before and washed thrice with FACS buffer. Cells were then incubated with anti-human PE conjugated secondary antibody (BD Biosciences) in FACS buffer for 30 minutes on ice. Cells were again washed thrice with FACS buffer and analyzed on a BD FACS Canto. Binding was measured as mean fluorescence intensity in the APC channel.

cell binding (FOB) | Binder
79 | B1

Reference: patent US20200317776A1 (published 2020)
